The text below walks through data of doi:10.1101/2020.06.26.173310.

Read-outs that look alike come from different tables or passages of the source. Some results are limits rather than exact numbers.

Experiment [1] addresses response regulator from Deinococcus radiodurans (DrRR) (Deinococcus radiodurans strain R1) (UniProt Q9RZA5). The experiment is described as follows: SPR. In general terms: Surface plasmon resonance follows binding to a sensor surface in real time, without labels.
The target is the same in experiment [2]. Briefly: SPR. This is another data set of the same source.
For experiment [3] the target is unchanged. The experiment is described as follows: SPR. The source holds these as a separate data set.
For experiment [4], the target named is response regulator from Agrobacterium fabrum (AtRR) (Agrobacterium fabrum strain C58) (UniProt Q7CY46). The experiment is described as follows: SPR.
In experiment [5] the target is bacteriophytochrome from Deinococcus radiodurans (DrBphP) (Deinococcus radiodurans strain R1) (UniProt Q9RZA4). The experiment is described as follows: ITC. On the technique in general: Isothermal titration calorimetry measures the heat released or taken up as one component is titrated into another.
Experiment [6] has the same target. The experiment is described as follows: ITC. The source holds these as a separate data set.

bacteriophytochrome from Deinococcus radiodurans (DrBphP) (Deinococcus radiodurans strain R1), sequence (Q9RZA4 whole entry): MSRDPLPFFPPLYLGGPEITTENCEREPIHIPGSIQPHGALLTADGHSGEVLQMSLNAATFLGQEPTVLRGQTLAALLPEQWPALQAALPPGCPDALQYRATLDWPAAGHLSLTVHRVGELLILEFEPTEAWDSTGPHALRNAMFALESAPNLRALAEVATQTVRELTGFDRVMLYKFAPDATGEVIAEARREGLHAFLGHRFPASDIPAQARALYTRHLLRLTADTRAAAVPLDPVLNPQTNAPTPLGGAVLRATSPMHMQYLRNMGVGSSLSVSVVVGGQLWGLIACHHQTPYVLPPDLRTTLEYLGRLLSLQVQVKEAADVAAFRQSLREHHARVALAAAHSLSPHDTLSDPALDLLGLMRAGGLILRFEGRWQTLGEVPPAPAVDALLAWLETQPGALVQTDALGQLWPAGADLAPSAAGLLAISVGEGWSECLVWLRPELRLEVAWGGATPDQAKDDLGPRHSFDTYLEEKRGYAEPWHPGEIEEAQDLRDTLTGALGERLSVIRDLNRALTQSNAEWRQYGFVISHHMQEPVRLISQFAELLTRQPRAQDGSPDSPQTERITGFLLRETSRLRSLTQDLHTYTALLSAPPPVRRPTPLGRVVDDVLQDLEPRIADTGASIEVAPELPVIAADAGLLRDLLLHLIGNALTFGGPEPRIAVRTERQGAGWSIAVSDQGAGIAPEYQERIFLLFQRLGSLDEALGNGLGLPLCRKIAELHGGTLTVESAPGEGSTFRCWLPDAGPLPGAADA

For the substance “bacteriophytochrome from Deinococcus radiodurans (DrBphP) (from UniProt Q9RZA4 1-755) (natural protein)”, the Kd – broadly, the equilibrium constant for the complex coming apart – is 60 µM in experiment [1], 10 µM in experiment [2] and 43 µM in experiment [3]. Moreover, in experiment [3], the stoichiometry N – broadly, a count of units in the complex or per binding partner – was 1.

In the case of “phytochrome 1 from Agrobacterium fabrum strain C58 (AgP1) (from UniProt Q7CY45 1-736) (natural protein)”, the Kd in experiment [4] was over 200 µM.

In turn, “response regulator from Deinococcus radiodurans (DrRR) (from UniProt Q9RZA5 1-149) (natural protein)” showed a dissociation constant Kd in experiment [5] of 35 µM. Moreover, in experiment [6], the Kd stood at 10.5 µM and the stoichiometry N was 1.
